Data: patent US20220347267A1, “METHODS TO IMPROVE PATIENT RESPONSE TO IMMUNE CHECKPOINT INHIBITORS AND FUNCTIONAL TESTS TO PREDICT RESPONSE” (Biomarker Strategies, LLC, priority 2019, published 2022)

Legend:
Assay in all cases: PD-L1 confocal microscopy, IFNγ stimulation
Assay type in all cases: cell-based, human
H1299 cells = test system: H1299 cells
Source text: (§1) To obtain fluorescent specimens, similar procedures are used when compared to flow cytometry. The sample is stained with a primary antibody that is specific for a protein of interest. The primary antibody can be conjugated to a fluorescent molecule or a secondary antibody can be used that attaches to the primary antibody. For intracellular staining of cells, the specimen can be fixed and permeabilized using methanol, formalin or a fixative containing a detergent. Subsequently, the specimen is stained with primary and/or secondary antibodies. For this dataset, samples were stained for PD-L1 in suspension using the same protocol that was used for the flow cytometry dataset. The protocol used was as follows:
(§2) Samples (150 uL per tube) were first incubated with a blocking reagent (BD cat #564219, Lot #9305316) at 1:20 for 15 min at room temperature. Alexa 488-conjugated PD-L1 antibody (CST cat #25048, Lot #2) and Alexa 488-conjugated isotype antibody (CST cat #2975, Lot #16) were added to experimental samples and isotype control samples, respectively, at a manufacturer recommended dilution of 1:50 and the samples were incubated for 30 min at room temperature. Other fluorophore-conjugates and PD-L1 antibodies, including those targeting different epitopes, can be readily used. Additionally, antibodies detecting other biomarkers with appropriate processing (e.g. permeabilization of cells) to predict response (e.g. p-STAT-1) can be used. Following the incubation with an antibody, 1 mL of 2% FBS in PBS was added to each tube to dilute the antibody. Samples were then centrifuged at 200 rcf for 5 min. Supernatant was carefully aspirated and 200 uL of 10% neutral buffered formalin (NBF) was added. Samples were then fixed for 10 min at room temperature. NBF was diluted with 1 mL of 2% FBS in PBS and the samples were centrifuged at 200 rcf for 5 min. Supernatant was aspirated and the cells were resuspended in 0.5 mL of 2% FBS in PBS for flow cytometric analysis. In this experiment, 10% NBF was used to fix cells, but other fixatives, for example, 4% paraformaldehyde can be used. For localization experiments an anti-phosphotyrosine antibody, anti-human/mouse, PE-Vio® 770 (Miltenyi Biotec, Cat #130-109-112) and an anti-PD-L1 antibody, anti-human, Brilliant Violet 650 (BV650; BD Biosciences, Cat #563740) were used. […]
(§3) PD-L1 was assessed in four cell lines (FIG. 35A). PD-L1 was quantified by analyzing FITC-PD-L1 using an 8-bit photomultiplier tube and quantified as raw arbitrary units (FIG. 35B). The PD-L1 expression of the four cell lines was quantified in treated and untreated conditions. […] Thus, PD-L1 expression can be measured qualitatively and quantitatively using confocal microscopy and other fluorescent microscopy techniques.

H460 cells = test system: H460 cells
Source text: as §1, §2, §3

SKMES1 cells = test system: SKMES1 cells
Source text: as §1, §2, §3

H1650 cells = test system: H1650 cells
Source text: as §1, §2, §3

B1: IFNγ: human IFNγ, modulator (10 ng/ml; Sigma Aldrich) (protein, UniProt P01579 24-161, looked up)
Interferon gamma: QDPYVKEAENLKKYFNAGHSDVADNGTLFLGILKNWKEESDRKIMQSQIVSFYFKLFKNFKDDQSIQKSVETIKEDMNVKFFNSNKKKRDDFEKLTNYSVTDLNVQRKAIHELIQVMAELSPAAKTGKRKRSQMLFRG
PD-L1 expression by confocal microscopy, untreated and IFNγ treated (H1299 cells): negative
PD-L1 expression by confocal microscopy, untreated and IFNγ treated (H460 cells): adaptive expression
PD-L1 expression by confocal microscopy, untreated and IFNγ treated (SKMES1 cells): innate expression
PD-L1 expression by confocal microscopy, untreated and IFNγ treated (H1650 cells): negative
